The values that follow come from patent US20080292639A1 (Amgen, published 2008).

Sequences and labels used below:
B1: 2.1 K (antibody, human IgG1, kappa, V domains shown)
VH: QVTLKESGPALVKPTQTLTLTCTFSGFSLRTSGMGVGWIRQPPGKGLEWLAHIWWDDDKSYNPSLKSQLTISKDTSKNQVVLTMTNMDPVDTATYYCARRNYYYDDYFAYWGQGTTLTVSS
VL: DVLMTQSPLSLPVTLGQPASISCRSSQSIVHSNGNTYLEWYLQRPGQSPKLLIYKVSNRFSGVPDRFSGSGSGTDFTLKISRVEAEDVGVYYCFQGSHVPLTFGAGTKLEIKR
B2: 2.1 chimera (murine/human chimeric form of antibody 2.1) (antibody, V domains shown)
VH: QVTLKESGPGILKPSQTLSLTCSFSGFSLRTSGMGVGWIRQPSGKGLEWLAHIWWDDDKSYNPSLKSQLTISKDTSRNQVFLKITSVDTADTATYYCARRNYYYDDYFAYWGQGTTLTVSS
VL: DVLMTQTPLSLPVSLGDQASISCRSSQSIVHSNGNTYLEWYLQKPGQSPKLLIYKVSNRFSGVPDRFSGSGSGTDFTLKISRVEAEDLGVYYCFQGSHVPLTFGAGTKLELK
notes: also called chimera 2.1; (CHO) 2.1 Chimera (control)
B3: 2.1 E K5 (antibody)
heavy: not shown
light: DVVMTQSPLSLPVTLGQPASISCRSSQSIVHSNGNTYLEWYLQKPGQSPRLLIYKVSNRFSGVPDRFSGSGSGTDFTLKISRVEAEDVGVYYCFQGSHVPLTFGGGTKVEIKRTVAAPSVFIFPPSDEQLKSGTASVVCLLNNFYPREAKVQWKVDNALQSGNSQESVTEQDSKDSTYSLSSTLTLSKADYEKHKVYACEVTHQGLSSPVTKSFNRGEC
notes: Humanized IgG
B4: 2.1 G (also described as 2.1 GK5R) (antibody, human IgG1, kappa)
heavy: not shown
light: B3 light with V2I, L15P, Q17E
notes: Humanized IgG
B5: 2.1 E (antibody, human IgG1, kappa)
heavy: not shown
light: B3 light
notes: Humanized IgG; also called 2.1 E (K5R); 2.1E.K5R
B6: 2.1 G K5 (antibody, human IgG1, kappa)
heavy: not shown
light: B3 light with V2I, L15P, Q17E
notes: Humanized IgG
B7: 2.1 J (antibody, human IgG1, kappa, V domains shown)
VH: B1 VH with G46A, T116L, L117V
VL: B1 VL with L3V, Y41F, L42Q, K50R, L51R, A105Q
B8: 2.1 I (also described as 2.1 I K5R) (antibody, human IgG1, kappa, V domains shown)
VH: B1 VH with K5R, G46A, T116L, L117V
VL: B1 VL with V2I, L3V, L15P, Q17E, R44K, K50Q, A105G, L109V
notes: Humanized IgG
B9: 2.1 L (antibody, human IgG1, kappa)
heavy: not shown
light: B3 light with V3L, K44R, R50K, G105A, V109L
notes: Humanized IgG
B10: 2.1 D (antibody, human IgG1, kappa)
heavy: not shown
light: B3 light with K44R, R50Q
notes: Humanized IgG; also called 2.1 D (K5R)
B11: 2.1 C (antibody, human IgG1, kappa)
heavy: not shown
light: B3 light with K44R, R50Q, G105Q, V109L
notes: Humanized IgG; also called 2.1 C (K5R)
B12: 2.1 F (antibody, human IgG1, kappa)
heavy: not shown
light: B3 light with V2I, L15P, Q17E, K44R, R50Q
notes: Humanized IgG; also called 2.1 F (K5R)
B13: 2.1 B (antibody, human IgG1, kappa, V domains shown)
VH: B1 VH with K5R, G46A, T116L, L117V
VL: B1 VL with L3V, Y41F, L42V, K50R, L51V, A105G
notes: Humanized IgG; also called 2.1 B (K5R)

Substitutions are numbered along the chain they refer to. Names may count otherwise. “And” between values parts separate entries of the source, which are not always exact repeats. Equal entries are not always repeated.

T1 sequence (P05067 672-711 limits assumed): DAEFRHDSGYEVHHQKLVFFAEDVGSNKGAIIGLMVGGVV
T4 sequence (P05067 672-713 limits assumed): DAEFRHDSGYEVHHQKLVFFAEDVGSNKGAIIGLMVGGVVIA

One test deals with amyloid plaques in unfixed brain sections of a human AD patient (human, UniProt P05067 672-713). The test can be described thus: cell-based or functional assay.
Sequence of amyloid plaques in unfixed brain sections of a human AD patient (P05067 672-713): as the sequence (P05067 672-713 limits assumed) above
On to B1, for which the “EC50 of phagocytosis by IC-21 cells on human AD brain sections” value worked out at 0.76 µg/mL.

In the next test the target is native amyloid plaques in unfixed brain sections of Tg2576 APP transgenic mice (human, UniProt P05067 672-713, limits assumed). As to the kind of experiment: cell-based or functional assay.
Sequence of native amyloid plaques in unfixed brain sections of Tg2576 APP transgenic mice (P05067 672-713 limits assumed): as above
For the molecule B2, the “EC50 (µg/ml), ex vivo phagocytosis” value amounted to 0.8 µg/mL; the “EC50 (µg/ml), ex vivo phagocytosis; 2.1 Chimera (293)” value is 1.08 µg/mL; the “EC50 (µg/ml), ex vivo phagocytosis; 2.1 Chimera (CHO)” value stood at 0.7 µg/mL.
As to B3, the “EC50 (µg/ml), ex vivo phagocytosis” value came to 3.94 µg/mL.
B1: the “EC50 (µg/ml), ex vivo phagocytosis” value was found to be 0.84 µg/mL.
With B4, the “EC50 (µg/ml), ex vivo phagocytosis” value was 0.94 µg/mL.
On to B5, for which the “EC50 (µg/ml), ex vivo phagocytosis” value came to 2.23 µg/mL.
Same read-out and setting: the result for B6 reads 1.78 µg/mL; that for B7, 1.22 µg/mL; that for B8, 0.69 µg/mL.
Regarding B9, the “EC50 (µg/ml), ex vivo phagocytosis” value was 0.82 µg/mL and 0.73 µg/mL.

The next test addresses T1, human Aβ40 fibrils (human, UniProt P05067 672-711).
T1 construct: domain: Aβ40; Aggregated (fibrillar) form; also called Fibrillar Aβ40; Aβ40 aggregate
The test can be described thus: BIAcore, antibody injected over immobilized Aβ fibrils. As to the method:
(§1) Preparation of BIacore Chip Surfaces: Immobilization of Proteins to a Biacore sensor chip (CM5) was performed according to manufacturer's instructions. Briefly, carboxyl groups on the sensor chip surfaces were activated by injecting 60 μL of a mixture containing 0.2 M N-ethyl-N′-(dimethylaminopropyl)carbodiimide (EDC) and 0.05 M N-hydroxysuccinimide (NHS). Specific surfaces were obtained by injecting rProtein G (Pierce), goat anti-mouse Fc (Jackson Immuno Research Lab) or Aβ aggregates diluted in 10 mM acetate, pH 4.0 at concentrations between 5 and 20 μg/mL. Excess reactive groups on the surfaces were deactivated by injecting 60 μL of 1 M ethanolamine. Final immobilized levels were about 10000 resonance units (RU) for the Protein G and anti-mouse Fc surfaces, and 400 RU for the Aβ aggregates surfaces. A blank, mock-coupled reference surface was also prepared on the sensor chips for background subtraction.
(§2) Kinetic analysis of antibodies binding to immobilized Aβ aggregates: Antibodies were diluted in PBS+0.005% P-20+0.1 mg/mL BSA from 100 nM to 0.2 nM. The samples at each concentration were injected over the immobilized Aβ aggregate surfaces, as well as over a blank surface for background subtraction. After a 15-minute dissociation, the surface was regenerated by injecting 8 mM glycine, pH 3.0, and 1 M NaCl for 30 seconds.
(§3) The kinetic analysis assay as described above was repeated using various humanized versions of anti-Aβ antibodies (2.1 chimera, 2.1 B, 2.1 C, 2.1 D, 2.1 E, 2.1 F, 2.1 G, 2.1 E.K5, 2.1E.K5R, 2.1 G.K5, 2.1 G.K5R, 2.1 I.K5R and 2.1 L).
(Surface plasmon resonance follows binding to a sensor surface in real time, without labels.)
As usually defined, the koff is the rate constant with which the complex falls apart. Turning to B2, the koff is 0.00012 s⁻¹ and 5.9e-05 s⁻¹.
The same measure, in the same setting: then B10, with 0.00012 s⁻¹.
Regarding B3, the koff is less than 5e-05 s⁻¹.
Still for that read-out and setting: then B4, with 0.00011 s⁻¹ and < 5e-05 s⁻¹; and B11, with 0.00015 s⁻¹.
Regarding B12, the koff came out at 0.00015 s⁻¹.
Still for that read-out and setting: the result for B5 reads 0.00011 s⁻¹ and < 5e-05 s⁻¹.
For the molecule B6, the koff was less than 5e-05 s⁻¹.
The same measure, in the same setting: the result for B8 reads less than 5e-05 s⁻¹.
The molecule B13 showed a koff of 0.00024 s⁻¹.
Turning to B9, the dissociation rate constant (koff) is less than 5e-05 s⁻¹.

In another test the target is T2, human Aβ42 fibrils (human, UniProt P05067 672-713).
T2 construct: domain: Aβ42; Aggregated (fibrillar) form; also called Fibrillar Aβ42; Aβ42 aggregate
T2 sequence (P05067 672-713 limits assumed): as above
The test is described as above. The procedure: as §1, §2, §3
In the case of B2, the off-rate (koff) is 6.9e-05 s⁻¹ and 6.3e-05 s⁻¹.
B10: the koff is 5.5e-05 s⁻¹.
Same read-out and setting: the result for B3 reads less than 5e-05 s⁻¹; that for B4, less than 5e-05 s⁻¹.
On the same count and under the same terms, then B11, with less than 5e-05 s⁻¹; and B12, with 0.00012 s⁻¹.
The same measure, in the same setting: then B5, with less than 5e-05 s⁻¹; and B6, with less than 5e-05 s⁻¹.
Take B8: the koff is less than 5e-05 s⁻¹.
In turn, B13 returned a koff of 0.00019 s⁻¹.
The molecule B9 registered a koff of less than 5e-05 s⁻¹.

A further test deals with T1, human Aβ40 fibrils. As to the kind of experiment: ELISA on plate-dried fibrils, time-resolved europium fluorescence. As to the method:
(§4) The fibrils (Aβ or collagen) were diluted to 10 μg/ml in water and mixed thoroughly. The solution was aliquoted into the wells of a microtiter plate (Immulon-2; VWR; Cat # 62404-972) at 50 μl per well (resulting in 0.5 μg fibrils/well final). The plate was dried overnight by being placed uncovered in a 37° C. incubator.
(§5) The wells were blocked with 200 μl of blocking solution and incubated for ≧1 hour at room temperature (RT) with shaking. The blocking solution was flicked out and gently dried on a paper towel. 100 μl of primary antibody diluted in PBS containing 10% blocking solution was added to each well and the plate was incubated at RT for 1 hour with shaking. The plate was washed with 5-10× in TBS, pH 7.5+0.05% Tween 20. 100 μl of secondary antibodies (each diluted 1-2,000-fold in PBS) was added to each well and the plate was incubate at RT for 1 hour with shaking. The plate was washed with 5-10× in TBS, pH 7.5+0.05% Tween 20. 100 μl Streptavidin-Europium reagent (1-1,000-fold dilution) was added and the plated was incubated at RT for 45 minutes with shaking. The plate was washed 5-10× in TBS, pH 7.5+0.05% Tween 20. 120 μl Enhance Solution was added and the plate was incubated at RT for 15-30 minutes with shaking. The plate was read on a Victor TRF plate reader (Europium program).
On the technique in general: An ELISA detects its analyte on a solid surface through an enzyme-linked reagent.
As usually defined, the EC50 is the concentration that produces a half-maximal response. A higher EC50 goes with a need for much substance. The molecule B2 showed an EC50 of 0.06 nM.

The next test deals with T2, human Aβ42 fibrils. Described as above. As to the method: as §4, §5
B2 came in with an EC50 of 0.072 nM. In other words, the picomolar range.

The target of a further test is T3, human Aβ40 monomer (human, UniProt P05067 672-711).
T3 construct: domain: Aβ40; Monomeric form
T3 sequence (P05067 672-711 limits assumed): as the sequence (P05067 672-711 limits assumed) above
As to the kind of experiment: ELISA on plate-coated monomer, time-resolved europium fluorescence. As to the method:
(§6) The same techniques were used for the coating of the microtiter plate for monomer ELISA. The fibrils Aβ monomer were diluted to 2.5 μg/ml in Coating buffer and mixed thoroughly. The solution was aliquoted into the wells of a microtiter plate [Immulon-2; VWR; Cat.#62404-972] at 100 μl per well. The plate was sealed and incubated overnight at 4° C. The plate was washed 5-10× to remove Aβ coating solution prior to starting the assay.
as §5
In the case of B2, the EC50 was determined as 0.031 nM.

The next test addresses T4, human Aβ42 monomer (human, UniProt P05067 672-713).
T4 construct: domain: Aβ42; Monomeric form
The test is described as above. As to the method: as §6, §5
The molecule B2 displayed a concentration for a half-maximal effect (EC50) of 0.034 nM. That is a picomolar value.
